The values below come from the DeepSol protein solubility set.

This series is described as follows: soluble on expression in E. coli; label from the status in PepcDB or PDB records.
For the sequence “MTESFAELFEASQANLAKLKPGSIVTGTVVEVRGDVVVINAGLKSEGIVPIEQFRNDAGEIDVGVGDQVKVALDSIENGFGETVLSREKAKRAMVWDELEEALEKNETITGRISGKVKGGFTVDIKDVRAFLPGSLVDVRPVRDPAYLEGKELEFKLIKLDRKRNNVVVSRRAVVESEHSEEREQLMDKLQEGAILKGVVKNLTDYGAFVDLGGIDGLLHITDMAWKRVRHPSEVVNVGDELDVRVLKFDRERNRVSLGLKQLGEDPWDNIARRYPANSRVFGKVSNVTDYGAFVEIEPGVEGLVHVSEMDWTNKNVNPSKVVQVGDEVEVMVLDVDEERRRISLGMKQVAANPWETFAATHKKNDKVSGQIKSITDFGIFIGLDGGIDGLVHLSDISWNTTGEDVVRNYKKGDTLEAVVLAVDPERERISLGVKQLEQDPFGQYMASNPKGSKVEGVVREVDAKGATIDLADGIEGYVAARDIANERVDDATQHLKVGDKIEAKFVGMDRKGRTLQLSIKAKDDAEMREVLEEYQSASGGTTQLGALLRAQLNSNKSELEHHHHHH”, the “soluble on expression in E. coli” value is “soluble”.
Consider “MGHHHHHHSHAAAIAGAKLRKVSRMEDTSFPSGGNAIGVNSASSKTDTGRGNGPLPLGGSGLMEEMSALLARRRRIAEKGSTIETEQKEDKGEDSEPVTSKASSTSTPEPTRKPWERTNTMNGSKSPVISRPKSTPLSQPSANGVQTEGLDYDRLKQDILDEMRKELTKLKEELIDAIRQELSKSNTA”, for which the “soluble on expression in E. coli” value was “soluble”.
The value for “MSLNEPLAERIRPKTLEDYVSQQHLVGENGILTKLIKQGIIPSLILWGPPGIGKTTLANIIATTSNRPFYTLSAISSGVKDVRDVIEKAKKSGGLFTAKNPILFIDEIHRFSKSQQDSLLGAVEKGWVTLIGATTENPSFEVIPALLSRCQIYILNSFDKEELIALLHRAMEKDAFLSSKKIILKETEALLQVSGGDARKLLNIFELLVSVDDEVVITNELVLSKIQKNTARYDKSGPQHYDIVSAFIKSIRGSDPNAAVYWLARMIEGGEDVKFIARRMLILASEDIGNANPTALIMANNTFQAVAIVGNPESRIILSQCAIYLSNSAKSNASYLAIGAAQKLVQETGDLSVPLNLRNAPTKLMKDLDYGADYKYSHDYPNSFVAQEFLPKTLSGNKIYTPGKNPREQQFKEVLKNRWKNKYEGHHHHHH” was “not soluble”.
Regarding “SNAMVQAQTRDQIVAAADELFYRQGFAQTSFVDISAAVGISRGNFYYHFKTKDEILAEVIRLRLARTAQMLADWQGTGDSPRARIASFIDLMIMNRAKITRYGCPVGSLCTELSKLDHAAQGQANGLFTLFRDWLQRQFAEAGCTTEAPALAMHLLARSQGAATLAQSFHDEGFLRSEVADMHRWLDNTLPMTT”, the “soluble on expression in E. coli” value is reported as “soluble”.
Regarding “MTEKLKNSKEVIAYIAECFPKCFTLEGEAKPLKIGIFQDLAERLNEDEKVSKTQLRAALRQYTSSWRYLHGVKPGAVRVDLDGNPCGELEEEHVEHAKATLAESKAKVQARRKEQAQKAREEGKAKAKPAANKKPQQPRRTNKPKVQKPTK”, the “soluble on expression in E. coli” value is given as “not soluble”.
As to “MSLYATMESVRLQSEAQQLAEMILQSETAENYRNCYKRLQEDEEAGRIIRSFIKIKEQYEDVQRFGKYHPDYREISRKMREIKRELDLNDKVADFKRAENELQSILDEVSVEIGTAVSEHVKVPTGNPYFDGLSSCGGGCGSGGSCGCKVSEGHHHHHH”, the “soluble on expression in E. coli” value is reported as “soluble”.
The value for “DYKDDDDKVKLTCYQNGVSFTGGKAISEAKAASSQACQELCEKDAKCRFFTLASGKCSLFADDAALRPTKSDGAVSGNKRCILLED” was “soluble”; that for “MSSIPQNIKGNNQPDIQKSFVAVHNQPGLYVGQQARFGGKVINVINGKTDTLLEISVLPLDSYAKPDIEANYQGRLLARQSGFLDPVNYRNHFVTILGTIQGEQPGFINKVPYNFLEVNMQGIQVWHLREVVNTTYNLWDYGYGAFWPEPGWGAPYYTNAVSQVTPELVKLEHHHHHH” was “soluble”.
The entry for “MGGSHHHHHHGMASALKEAMVQAEEAAAEITRKLEKQEKKRLKKEKKRLAALALASSENSSSTPEECEEMSEKPKKKKKQKPQEVPQENGMEDPSISFSKPKKKKSFSKEELMSSDLEETAGSTSIPKRKKSTPKEETVNDPEEAGHRSGSKKKRKFSKEEPVSSGPEEAVGKSSSKKKKKFHKASQED” is “not soluble”; for “MPLTDTPPSVPQKPRRGRPRGAPDASLAHQSLIRAGLEHLTEKGYSSVGVDEILKAARVPKGSFYHYFRNKADFGLALIEAYDTYFARLLDQAFLDGSLAPLARLRLFTRMAEEGMARHGFRRGCLVGNLGQEMGALPDDFRAALIGVLETWQRRTAQLFREAQACGELSADHDPDALAEAFWIGWEGAILRAKLELRPDPLHSFTRTFGRHFVTRTQE” it is “soluble”; for “MGHHHHHHSHEKMNGSHRDQGSSALSGVGGIRLPNGKLKCDICGIICIGPNVLMVHKRSHTGERPFQCNQCGASFTQKGNLLRHIKLHSGEKPFKCHLCNYACRRRDALTGHLRTHSVGKPHKCGYCGRSYKQRSSLEEHKERCHNYLESMGLPGTLYPVIKEETNHSEMAEDLCKIGSERSLVLDRLASNVAKRKSSMP” it is “soluble”.
Regarding “MTIKTGNIRTNSLAEIYRNSPVFQNLRNPDKYKGKCGVCEFRYVCGGSRSRAYAMTGGLYGKMAGDPLEHHHHHH”, the “soluble on expression in E. coli” value is given as “not soluble”.
The value for “MDSKSHGWLIGANGTILETHDGGEHWEPRTFDFLRMDEEINYRFESISCYGNEGWIVGKPPILLHTQNGGKDWERIPLSSKLPGEPVLITALGPNRAELATTAGAIYTTDNGGKNWKALVKETIDATLNRTTSSGVTGASYYTGTVISITRDCNGYYLAISSRGNFYVTWHPGQEYWTPHPRDSSRRIQSMGFVQNDIHKGLWMANNGGFLGFSPPNPSLDTVSSIPFQRVDIRTGGYGILDVAFHQQKRNEVWASVGSGILYRSFDGGKHWEKDPWLDHLGSVLYRIKFVENSGFILGAKGTLLRYNG” was “soluble”; that for “MLSVENLKVVYRGVILALDGVSLEVGEGEAVALLGPNGAGKSSLVRTIAGLLPKFEGRVLDGKVRLFGREATHLDPVGISRLGLTAILEGRPLFRYLTPVENLMAAGHRLPPKALKEGMEEVFARFPRLYERRHEQAGYLSGGEQQMLLLGMALLTRPRLLVVDEPSLGLAPKLVGEVMQTLDALRREKGLSLLLVEQNARAALGVVDRVYVLERGRVVFEGSAKEAMEDQDVMEFYLGKEEVGFRQARRYRRRKRWV” was “soluble”; that for “MGSDKIHHHHHHMAFYPVHKELQNISQSMPQGNFGLWYNKFIPLSDDAFKPSDDKGSNGKGDENRPVDYYFGQYSKLRLNAAETAAILKQKHEDMDDFCANFPPQKYEEIAICATLDSPLITGIGESHPHEVSMVFDHNMGIPYIPASGVKGIVRFAHTISLIPEAMNKAEVIDNVRFDDEADWTSVPHMFGTQKNRGNVIFLDAYPEDIPALHMDIMNPHYSPYYSEGKPPADHHNPTPIKFLTVAKGTKFIFRAVAKKEQNLPQKIRVAFAEALTKEGVGAKIALGYGRFVIDEDGQKVLLKKRKQRHEEKKRRLSPWLDYIELINQVGDWGQFKQIVLDNEKLVEYRKEMDVTEAVRIKALEIRNKWRKSWGASRDEQIATWLQPAGVEWPCIVAGIENPVKEKSADYEKIMQLIDWGAYKSAGIDLSKLPLDALQLLKQKMEEWGCYSKKAKEDKKTAFKKVKDLLRQHQK” was “not soluble”.
With “MGSDKIHHHHHHMPELATREFWKDLQPIPDCFKPDAKPEVYLRNAPTEDERLYVPFTETVKSRPLWISPSENRWCDILMATSAGLVNRHYHPHEVFAYTISGKWGYLEHDWTATAGDFVYETPGEGHTLVAYEHEQPMRAFFIVKGPLVWLDEKGNADGIFDVHDYIAMCREHYDKIGVGAAYIDSLFR”, the “soluble on expression in E. coli” value is reported as “not soluble”.
Regarding “EKEKDTIAAEHKQEASVLLNLHRNKINYLIGETMARMTSLSIAIDRPVDIKKMQSILEKTFDSEPRFSGLYFLNAKGDVTASTTELKTKVNLADRSFFIKAKETKKTVISDSYSSRITGQPIFTICVPVLDSKRNVTDYLVAAIQIDYLKNLINLLSPDVYIEVVNQDGKMIFASGQASHAEDQKPVSGYLDDISWNMKVYPNPVTIEELSKSL”, the “soluble on expression in E. coli” value is given as “soluble”.
As for “FSSALTSKDAARLADETDNIAEALRAAETEGVALQDMLQAYLPANGMVRVVNGDQKAVMTITKEKAYKDFPLSFHSGETADVRKPDGKLFAEAAVPVIWTDGQVVSLQLVERLENTEESLFLLK”, the “soluble on expression in E. coli” value is reported as “not soluble”.
With “MKVLEERNAFLSDYEVLKFLTDLEKKHLWDQKSLAALKKSRSKGKQNRPYNHPELQGITRNVVNYLSINKNFINQEDEGEERESSGAKDAEKSGISKMSDESFAELMTKLNSFKLFKAEKLQIVNQLPANMVHLYSIVEECDARFDEKTIEEMLEIISAYA”, the “soluble on expression in E. coli” value is “soluble”.
Regarding “MAHHHHHHMKLMLKKKKKGRKRKRSYYKEIESLFWTAEDYNFDKDKQYLENIDKNMLVKLFELICFYSLKDLHVYEEQALITSKMLDIIQIPEGRAFYGFQMCMENIHDEVYACIFETYIPDSKQKRVIINKVIELDSVLKKQKWLTEIFESNIPYYNKLVLLYISKVLFNGTLNILIGYCKENSILPCLCNVHEKIHRDEYLHGDFSVMCCNHLVNKLKYEHVLDYFKMAVDLEYQFSLEMLELNVLKIKKEQVRAFLEYLTDTMLTNLKYPKHYNSKYPFSWPEFTKIIVNENGKEETVKKGENVYGEKQILFDEDF”, the “soluble on expression in E. coli” value is given as “not soluble”.
The value for “MMPGYQSADEFADKEKGWTGVHQWEKEMAKADEKYGPIFAKFAAMPIEEVAKDPQAVKMGGRLFASNCSICHGSDAKGAYGFPNLTDADWRWGGEPETIKTTIMAGRHAAMPAWGEVIGEEGVKNVAAFVLTQMDGRKLPEGAKADIEAGKQVFATTCVACHGPEGKGTPAMGAPDLTHPGAFIYGSSFAQLQQTIRYGRQGVMPAQQEHLGNDKVHLLAAYVYSLSHGE” was “not soluble”.
The value for “MGSDKIHHHHHHMSDVVLNKGIVIEQLRYGHGNDVLVVDAWQLGTAEHWAIFATDSYSGSLLGRILSGDITPDQGIITGLPQRIGWVSLGQQQALLARELAKDELDYGSSVELLVLECCQGAQQLGPLLQQVGLEHLRLRGFRQLSTGETRRVMLARALAMQPQLLILDDPYAGLDCEHQESLSQLLDEVAKNCQLLLITSRQEELPECISHVALFNTEMLQSGQSIHKLSLPMSIKEWHSHPIMAQLHALSAQRSDELLALLVRQRHKVEDFDPLVEIKNGKVEYVSGLIFSGVNWRIEAGQHWQVRGPNGCGKSTLLGLILGDHPQCYSNDITLFGRPRGSGESIWEIKQRIGIVSSALHLQYRVSCSALDVLLSGFFDSIGLYHKPTKLQHDLAKEWLAILHMSELAHISFKQLEYGQQRLLLIGRALIKKPLLLILDEPYQGLDFINRTLVMRTLEMIAHHHLSQLLYVSHHREDALPSIKHFIDFVRQGDGYSVQVSHL” was “not soluble”.
The value for “MSLEDSKASLETRNFYMNRDFRDGPGQSKREEWAQGFILNLQSGYTQGTVGFGLDAMGMLGVKLDSGRGRSGTGLLPKDSDGRAPDTYSKLGLTAKVKVSQSELKVGTLIPKLPSVQPNNGRIFPQIFEGALLTSKEIKDLGFTAGRLEKTKIRDSSDSEDLALNDKNGRFAGVSADHFDLGGLDYKLTDQLTASYHYSNLQDVYRQHFVGLLHSWPIGPGELTSDLRFARSTDSGSAKAGGIDNKSLNGMFTYSLGNHAFGAAWQRMNGDDAFPYLEGSNPYLVNFVQVNDFAGPKERSWQLRYDYDFVGLGIPGLTFMTRYVKGDNVELAGQSGEGREWERNTELQYVFQSGALKNLGIRWRNATFRSNFTRDIDENRLIVSYTLPIWEGHHHHHH” was “soluble”.
